Measured values taken from patent US6632633B1, “Process for oxidation of steroids and genetically engineered cells used therein” (Aventis Pharma, S.A., priority 1988, dated 2003).

Assays:
[1] = tested on: pregnenolone; conditions: after expression in HeLa cells of the respective cDNA's; cited from earlier work
[2] = target: T1, Bovine adrenodoxin (ADX), mature protein with added methionine start, expressed in K. lactis from pGBADX-1 or pGBSCC/ADX-1, P00257
T1 chain: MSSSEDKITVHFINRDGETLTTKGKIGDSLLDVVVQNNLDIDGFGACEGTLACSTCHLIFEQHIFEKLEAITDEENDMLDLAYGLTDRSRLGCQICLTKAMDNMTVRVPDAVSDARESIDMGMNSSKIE

[3] = target: T2, ADX purified from bovine adrenal cortex, P00257
T2 chain: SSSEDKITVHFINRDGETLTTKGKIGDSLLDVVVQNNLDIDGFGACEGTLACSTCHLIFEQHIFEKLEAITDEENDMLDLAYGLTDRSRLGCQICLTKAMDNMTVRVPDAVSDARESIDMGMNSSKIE

[4] = target: T3, cytochrome P450SCC (Bos taurus, UniProt P00189); test: ADX activity (electron transfer from adrenodoxin reductase to cytochrome P450SCC) in cell-free extracts by P450SCC activity assay; assay type: biochemical, bovine; conditions: within 15 minutes at 30° C.
T3 construct: 1.5 μM of P450 SCC (purified from bovine adrenal cortex); from tissue; host or cells: bovine adrenal cortex
T3 sequence (P00189 40-520): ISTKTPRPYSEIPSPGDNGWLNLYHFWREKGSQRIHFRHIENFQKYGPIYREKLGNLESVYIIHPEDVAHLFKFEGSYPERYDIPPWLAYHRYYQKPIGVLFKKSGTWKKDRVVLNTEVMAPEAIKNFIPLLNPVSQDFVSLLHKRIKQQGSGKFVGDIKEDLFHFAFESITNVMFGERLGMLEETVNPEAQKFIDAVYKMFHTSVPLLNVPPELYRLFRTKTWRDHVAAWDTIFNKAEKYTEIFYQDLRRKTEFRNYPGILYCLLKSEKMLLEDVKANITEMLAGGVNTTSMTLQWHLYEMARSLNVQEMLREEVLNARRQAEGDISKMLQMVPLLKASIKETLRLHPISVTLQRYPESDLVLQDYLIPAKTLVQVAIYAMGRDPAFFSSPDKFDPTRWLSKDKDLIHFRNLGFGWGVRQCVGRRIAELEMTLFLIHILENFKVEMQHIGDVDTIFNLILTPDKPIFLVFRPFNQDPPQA
Method: K. lactis ADX-102, obtained as described in Example 23, and control strain K. lactis CBS 2360 were grown in 100 ml of YEPD medium (1% yeast extract, 2% peptone, 2% glucose monohydrate) containing 2.5 ml of a 6.7% (w/w) yeast nitrogen base (Difco laboratories) solution and 100 mg 1^−1 of geneticin (G418 sulfate; Gibco Ltd.), for 56 hours at 30° C. The cells were collected by centrifugation (4,000×g, 15 minutes), resuspended in a physiological salt solution and washed with a phosphate buffer (pH 7.0, 50 mM). After centrifugation (4,000×g, 15 minutes), the pellet was resuspended in a phosphate buffer (pH 7.0, 50 mM) resulting in a suspension containing 0.5 g cell wet weight/ml. The cells were disrupted using a Braun MSK Homogenizer (6×15 seconds, 0.45-0.50 mm glass beads) and unbroken cells were removed by centrifugation (4,000×g, 15 minutes). […]
ADX activity, i.e. electrotransfer capacity from adrenodoxin reductase to cytochrome P450SCC, in the cell-free extracts was determined by a P450SCC activity assay. […]
The assay was started by mixing 75 μl of solution A with 50 μl of solution B and 125 μl of cell-free extract or 125 μl of a potassium phosphate buffer (50 mM, pH 7.0) containing 10 μM ADX (purified from bovine adrenal cortex). […] The suspension was heated for 15 minutes at 120° C. and then, the ^14C/^3H ratio was determined by double label liquid scintillation counting. […]

B1: type II 3β HSDH: human 3β HSDH type II, isolated from adrenals and gonads (protein, UniProt P26439 1-372, looked up)
3 beta-hydroxysteroid …: MGWSCLVTGAGGLLGQRIVRLLVEEKELKEIRALDKAFRPELREEFSKLQNRTKLTVLEGDILDEPFLKRACQDVSVVIHTACIIDVFGVTHRESIMNVNVKGTQLLLEACVQASVPVFIYTSSIEVAGPNSYKEIIQNGHEEEPLENTWPTPYPYSKKLAEKAVLAANGWNLKNGDTLYTCALRPTYIYGEGGPFLSASINEALNNNGILSSVGKFSTVNPVYVGNVAWAHILALRALRDPKKAPSVRGQFYYISDDTPHQSYDNLNYILSKEFGLRLDSRWSLPLTLMYWIGFLLEVVSFLLSPIYSYQPPFNRHTVTLSNSVFTFSYKKAQRDLAYKPLYSWEEAKQKTVEWVGSLVDRHKETLKSKTQ
[1]
  Km: 1.2 µM

B2: Bovine cytochrome P450 side chain cleavage enzyme (P450SCC), mature protein with added methionine start, expressed recombinantly (pGBSCC-5, pGBSCC-17, … (protein)
chain: MISTKTPRPYSEIPSPGDNGWLNLYHFWREKGSQRIHFRHIENFQKYGPIYREKLGNLESVYIIHPEDVAHLFKFEGSYPERYDIPPWLAYHRYYQKPIGVLFKKSGTWKKDRVVLNTEVMAPEAIKNFIPLLNPVSQDFVSLLHKRIKQQGSGKFVGDIKEDLFHFAFESITNVMFGERLGMLEETVNPEAQKFIDAVYKMFHTSVPLLNVPPELYRLFRTKTWRDHVAAWDTIFNKAEKYTEIFYQDLRRKTEFRNYPGILYCLLKSEKMLLEDVKANITEMLAGGVNTTSMTLQWHLYEMARSLNVQEMLREEVLNARRQAEGDISKMLQMVPLLKASIKETLRLHPISVTLQRYPESDLVLQDYLIPAKTLVQVAIYAMGRDPAFFSSPDKFDPTRWLSKDKDLIHFRNLGFGWGVRQCVGRRIAELEMTLFLIHILENFKVEMQHIGDVDTIFNLILTPDKPIFLVFRPFNQDPPQA
[2]
  cholesterol side-chain cleaving reaction in the presence of NADPH and ADR: cholesterol side-chain cleaving activity was demonstrated in the cell-free extract of K. lactis SCC/ADX-101, whereas the cell-free extract of K. lactis SCC-101, no activity was detectable

B3: P450SCC expressed from pre-P450SCC encoding DNA in yeast (pGBSCC-12 in K. lactis, pGBSCC-13 in S. cerevisiae SCC-105) (protein)
chain: MLARGLPLRSALVKACPPILSTVGEGWGHHRVGTGEGAGISTKTPRPYSEIPSPGDNGWLNLYHFWREKGSQRIHFRHIENFQKYGPIYREKLGNLESVYIIHPEDVAHLFKFEGSYPERYDIPPWLAYHRYYQKPIGVLFKKSGTWKKDRVVLNTEVMAPEAIKNFIPLLNPVSQDFVSLLHKRIKQQGSGKFVGDIKEDLFHFAFESITNVMFGERLGMLEETVNPEAQKFIDAVYKMFHTSVPLLNVPPELYRLFRTKTWRDHVAAWDTIFNKAEKYTEIFYQDLRRKTEFRNYPGILYCLLKSEKMLLEDVKANITEMLAGGVNTTSMTLQWHLYEMARSLNVQEMLREEVLNARRQAEGDISKMLQMVPLLKASIKETLRLHPISVTLQRYPESDLVLQDYLIPAKTLVQVAIYAMGRDPAFFSSPDKFDPTRWLSKDKDLIHFRNLGFGWGVRQCVGRRIAELEMTLFLIHILENFKVEMQHIGDVDTIFNLILTPDKPIFLVFRPFNQDPPQA
[3]
  side chain cleavage of cholesterol (P450SCC activity assay, 14C/3H ratio): During 3 hours of incubation, 45% of the cholesterol had been converted

B4: adrenodoxin reductase purified from bovine adrenal cortex (protein)
chain: STQEQTPQICVVGSGPAGFYTAQHLLKHHSRAHVDIYEKQLVPFGLVRFGVAPDHPEVKNVINTFTQTARSDRCAFYGNVEVGRDVTVQELQDAYHAVVLSYGAEDHQALDIPGEELPGVFSARAFVGWYNGLPENRELAPDLSCDTAVILGQGNVALDVARILLTPPDHLEKTDITEAALGALRQSRVKTVWIVGRRGPLQVAFTIKELREMIQLPGTRPMLDPADFLGLQDRIKEAARPRKRLMELLLRTATEKPGVEEAARRASASRAWGLRFFRSPQQVLPSPDGRRAAGIRLAVTRLEGIGEATRAVPTGDVEDLPCGLVLSSIGYKSRPIDPSVPFDPKLGVVPNMEGRVVDVPGLYCSGWVKRGPTGVITTTMTDSFLTGQILLQDLKAGHLPSGPRPGSAFIKALLDSRGVWPVSFSDWEKLDAEEVSRGQASGKPREKLLDPQEMLRLLGH
[3]
  side chain cleavage of cholesterol (P450SCC activity assay, 14C/3H ratio): the side chain of the cholesterol was cleaved within 15 minutes in a yield of 50%
[2]
  side chain cleavage of cholesterol (P450SCC activity assay, 14C/3H ratio): the side chain of the cholesterol was cleaved within 15 minutes in a yield of 50%

B5: P450SCC purified from bovine adrenal cortex (protein)
chain: T3 sequence (P00189 40-520)
[3]
  side chain cleavage of cholesterol (P450SCC activity assay, 14C/3H ratio): the side chain of the cholesterol was cleaved within 15 minutes in a yield of 50%
[2]
  side chain cleavage of cholesterol (P450SCC activity assay, 14C/3H ratio): the side chain of the cholesterol was cleaved within 15 minutes in a yield of 50%

B6: type I enzyme: human 3β-hydroxy-5-ene steroid dehydrogenase/5-ene-4-ene isomerase type I, isolated from placenta, also expressed in skin (protein, UniProt P14060 2-373, looked up)
3 beta-hydroxysteroid …: TGWSCLVTGAGGFLGQRIIRLLVKEKELKEIRVLDKAFGPELREEFSKLQNKTKLTVLEGDILDEPFLKRACQDVSVIIHTACIIDVFGVTHRESIMNVNVKGTQLLLEACVQASVPVFIYTSSIEVAGPNSYKEIIQNGHEEEPLENTWPAPYPHSKKLAEKAVLAANGWNLKNGGTLYTCALRPMYIYGEGSRFLSASINEALNNNGILSSVGKFSTVNPVYVGNVAWAHILALRALQDPKKAPSIRGQFYYISDDTPHQSYDNLNYTLSKEFGLRLDSRWSFPLSLMYWIGFLLEIVSFLLRPIYTYRPPFNRHIVTLSNSVFTFSYKKAQRDLAYKPLYSWEEAKQKTVEWVGSLVDRHKETLKSKTQ
[1]
  Km: 0.24 µM

B7: purified ADX: adrenodoxin purified from bovine adrenal cortex, 10 μM in buffer (protein)
chain: T2 chain
[4]
  yield of cholesterol side chain cleavage: 50%
